Test results: the supplement of paper PMC12042874
± gives the uncertainty stated by the source.

test: amyloid nucleation score (Sup35N fusion, yeast selection) (log enrichment); library NNK1; higher = more nucleation; inactive = no reads after selection
Summary of the method: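 Output and input plasmid inserts were sequenced by Illumina after psi-negative yeast carrying Sup35N fused to peptides of 20 random codons had been induced 24 hours with 100 μM copper sulfate and grown 7 days at 30°C on medium lacking adenine and uracil. The nucleation score is the DiMSum log enrichment of output over input reads, centred on the mode score of non-aggregating sequences. Sequences with under 100 input reads were excluded.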

Q: Which amyloid nucleation score does the source give for KRLGWSSVFRLARVERVLRS here?
A: The amyloid nucleation score was -0.929 ± 1.9.

Q: For ILWFYYTLGACFCWLYINYK, which amyloid nucleation score is on record?
A: The amyloid nucleation score was 0.26 ± 0.57.

Q: With YYVDV as the substance, how does the amyloid nucleation score read?
A: Its amyloid nucleation score is -0.034 ± 0.88.

Q: Which amyloid nucleation score does the source give for EDMWKTCTAV here?
A: The amyloid nucleation score was 0.244 ± 0.37.

Q: Which amyloid nucleation score does the source give for YPLTSHYLLTR here?
A: Its amyloid nucleation score is 0.038 ± 0.64.

Q: Which amyloid nucleation score does the source give for ALRGMWNKVRSGGWCYRCTW here?
A: The amyloid nucleation score was -0.05 ± 1.4.

Q: With CLTLPYYSIYAVGESRMFEW as the substance, how does the amyloid nucleation score read?
A: The amyloid nucleation score was 0.003 ± 0.27.

Q: With FAYEAWLMR as the substance, how does the amyloid nucleation score read?
A: Its amyloid nucleation score is -0.077 ± 0.27.

Q: With CLVVTETANI as the substance, how does the amyloid nucleation score read?
A: The amyloid nucleation score was -0.578 ± 0.69.

Q: With NPHEDRGLESQSAPGGRKWR as the substance, how does the amyloid nucleation score read?
A: Its amyloid nucleation score is 1.74 ± 0.64.

Q: With DWLFVGGGR as the substance, how does the amyloid nucleation score read?
A: Its amyloid nucleation score is 0.131 ± 0.56.

Q: Which amyloid nucleation score does the source give for QELICMGSEYVFPNWTSFRA here?
A: The amyloid nucleation score was -0.412 ± 0.49.

Q: With YNMVFWTKFSLSWLLCLHGK as the substance, how does the amyloid nucleation score read?
A: Its amyloid nucleation score is 5.86 ± 0.088.

Q: With KLKINCMYN as the substance, how does the amyloid nucleation score read?
A: Its amyloid nucleation score is 2.03 ± 0.45.

Q: For SCPWLDSSLCFMNVGVLIYK, which amyloid nucleation score is on record?
A: The amyloid nucleation score was 3.37 ± 0.062.

Q: With FCTLALHNTI as the substance, how does the amyloid nucleation score read?
A: Its amyloid nucleation score is 1.24 ± 0.64.

Q: For YVYRFNFLNFVW, which amyloid nucleation score is on record?
A: The amyloid nucleation score was 1.93 ± 0.12.

Q: Which amyloid nucleation score does the source give for NGWILNLVWTVKNTSMTLIW here?
A: Its amyloid nucleation score is 0.678 ± 0.51.

Q: With LMTLDYSTYQHRRATDVWDG as the substance, how does the amyloid nucleation score read?
A: Its amyloid nucleation score is -0.65 ± 1.3.

Q: Which amyloid nucleation score does the source give for FCLFGRLVTFLAVKMYVNCE here?
A: Its amyloid nucleation score is -0.529 ± 0.3.

Q: Which amyloid nucleation score does the source give for KTRFLKYDNLSWTDKSNWVL here?
A: The amyloid nucleation score was “inactive”.

Q: With WRSSSFSGIWYVSVGYNASL as the substance, how does the amyloid nucleation score read?
A: Its amyloid nucleation score is -0.455 ± 0.4.

Q: With FSVMKCWPSPRPVNRFLIYA as the substance, how does the amyloid nucleation score read?
A: The amyloid nucleation score was -0.706 ± 0.46.

Q: For SPRLAGMVSMVDKCRRASGR, which amyloid nucleation score is on record?
A: The amyloid nucleation score was 0.097 ± 0.33.

Q: Which amyloid nucleation score does the source give for PFHGFGR here?
A: The amyloid nucleation score was -1.04 ± 0.53.

Q: For FRVWSAFPYVGKSSPFGHSS, which amyloid nucleation score is on record?
A: The amyloid nucleation score was -0.89 ± 0.53.

Q: Which amyloid nucleation score does the source give for STIMMF here?
A: Its amyloid nucleation score is 0.289 ± 0.52.

Q: With GGYMGL as the substance, how does the amyloid nucleation score read?
A: The amyloid nucleation score was -0.158 ± 0.35.

Q: For KRIDDYAKFRC, which amyloid nucleation score is on record?
A: The amyloid nucleation score was “inactive”.

Q: For YLLRVCAAMMFSKLCNG, which amyloid nucleation score is on record?
A: The amyloid nucleation score was 6.028 ± 0.049.

Q: For WRGRVTKFRVLH, which amyloid nucleation score is on record?
A: Its amyloid nucleation score is 0.105 ± 0.53.

Q: For IGYFWCCRLETANIVFNFVW, which amyloid nucleation score is on record?
A: Its amyloid nucleation score is -0.724 ± 1.3.

Q: For FVKVLDFYLMLSCHTICLFG, which amyloid nucleation score is on record?
A: Its amyloid nucleation score is -0.832 ± 1.5.

Q: For NLWKVFCSCLNRDMKALGNW, which amyloid nucleation score is on record?
A: The amyloid nucleation score was -1.04 ± 0.51.

Q: For WSYLQY, which amyloid nucleation score is on record?
A: The amyloid nucleation score was -0.364 ± 0.79.

Q: For WGAHCGWQF, which amyloid nucleation score is on record?
A: The amyloid nucleation score was -0.749 ± 1.3.

Q: With YNSEGDRLESNESWDWMARR as the substance, how does the amyloid nucleation score read?
A: The amyloid nucleation score was 0.511 ± 0.57.

Q: For VVVVIFDFRCNKLQ, which amyloid nucleation score is on record?
A: Its amyloid nucleation score is 2.28 ± 0.2.

Q: With TGTSSPMRPLH as the substance, how does the amyloid nucleation score read?
A: The amyloid nucleation score was 0.532 ± 0.69.

Q: Which amyloid nucleation score does the source give for LTEDMNYFAY here?
A: Its amyloid nucleation score is 0.252 ± 0.46.

Q: With EDSSTSLLVGMELKRLTVSF as the substance, how does the amyloid nucleation score read?
A: The amyloid nucleation score was 0.258 ± 0.35.

Q: For TEGFNTANA, which amyloid nucleation score is on record?
A: The amyloid nucleation score was -0.34 ± 1.1.

Q: With FIRVMRA as the substance, how does the amyloid nucleation score read?
A: The amyloid nucleation score was “inactive”.

Q: Which amyloid nucleation score does the source give for NCHSSFYGNDIGGLSHVMCL here?
A: The amyloid nucleation score was 1.89 ± 0.7.

Q: For SVGMVLFLGCGLLLFRFLCG, which amyloid nucleation score is on record?
A: The amyloid nucleation score was -0.359 ± 1.2.

Q: With NLGAMWLNVVPVYLKWVAL as the substance, how does the amyloid nucleation score read?
A: Its amyloid nucleation score is -0.095 ± 0.32.

Q: For VWMLTMSAFKVYWLNFINYA, which amyloid nucleation score is on record?
A: The amyloid nucleation score was -0.037 ± 0.22.

Q: Which amyloid nucleation score does the source give for NLRYYQFRSRSPTAWGHTMF here?
A: Its amyloid nucleation score is -0.744 ± 0.58.

Q: Which amyloid nucleation score does the source give for DATVQTWGDVKSGLWWVCCP here?
A: Its amyloid nucleation score is 5.62 ± 0.098.

Q: For SYGSKFWEFLHFGESV, which amyloid nucleation score is on record?
A: Its amyloid nucleation score is -0.179 ± 0.66.

Q: Which amyloid nucleation score does the source give for IYPRMCLRGFAACV here?
A: The amyloid nucleation score was 2.91 ± 0.13.

Q: With DAQWAYYTRTYFWYVFSAVC as the substance, how does the amyloid nucleation score read?
A: Its amyloid nucleation score is 0.27 ± 0.23.

Q: For FEDGTCALR, which amyloid nucleation score is on record?
A: Its amyloid nucleation score is -0.059 ± 0.62.

Q: For MMLRLRT, which amyloid nucleation score is on record?
A: Its amyloid nucleation score is “inactive”.

Q: With LGEMGRVSYLYVCLHWALLS as the substance, how does the amyloid nucleation score read?
A: Its amyloid nucleation score is 0.119 ± 0.44.

Q: For YNVVSSKNNTVRFVLFP, which amyloid nucleation score is on record?
A: Its amyloid nucleation score is 4.31 ± 0.12.

Q: With MWWHVSSMQDRDSGDFNGLL as the substance, how does the amyloid nucleation score read?
A: The amyloid nucleation score was 0.323 ± 0.22.

Q: With SSGSMCTLFSSE as the substance, how does the amyloid nucleation score read?
A: The amyloid nucleation score was 1.75 ± 0.57.

Q: For QFFTILCTGILLLNASTRLL, which amyloid nucleation score is on record?
A: The amyloid nucleation score was -0.777 ± 2.4.

Q: With CQLNTASVSNNGGRVLGMYR as the substance, how does the amyloid nucleation score read?
A: Its amyloid nucleation score is 0.529 ± 0.79.

Q: Which amyloid nucleation score does the source give for KILCWNIFLPYKGVRGRFGM here?
A: Its amyloid nucleation score is 6.895 ± 0.053.

Q: With HMGVRMNHFFTSDLSVVMWF as the substance, how does the amyloid nucleation score read?
A: Its amyloid nucleation score is 3.59 ± 0.12.

Q: With NVYKFCDRAGLCAVGYYLGT as the substance, how does the amyloid nucleation score read?
A: Its amyloid nucleation score is 3.02 ± 0.081.

Q: For AVGKYLWASVGIAFDRQSIM, which amyloid nucleation score is on record?
A: The amyloid nucleation score was -0.837 ± 2.4.

Q: With WSTGDVLVLVKLYYAFMCVI as the substance, how does the amyloid nucleation score read?
A: The amyloid nucleation score was -0.819 ± 0.27.

Q: Which amyloid nucleation score does the source give for FSREYL here?
A: The amyloid nucleation score was -0.251 ± 0.3.

Q: With ALRFFWDPFIDG as the substance, how does the amyloid nucleation score read?
A: The amyloid nucleation score was 0.388 ± 0.81.

Q: Which amyloid nucleation score does the source give for IMHQYRRGYDRDLNWNRMFR here?
A: Its amyloid nucleation score is 0.035 ± 0.72.

Q: For CHHSYCMITPLTVSTARNGW, which amyloid nucleation score is on record?
A: The amyloid nucleation score was 0.749 ± 0.35.

Q: For AARELKIVTRVMHFDADREA, which amyloid nucleation score is on record?
A: The amyloid nucleation score was 0.103 ± 0.43.

Q: With FVLSIFYIWGKSPSRTYWMN as the substance, how does the amyloid nucleation score read?
A: The amyloid nucleation score was -0.322 ± 0.74.

Q: For NGTAVCLVRSLVYAHHGRQG, which amyloid nucleation score is on record?
A: Its amyloid nucleation score is 0.481 ± 0.38.

Q: For EDCIMGNWNLCSKGSSGF, which amyloid nucleation score is on record?
A: The amyloid nucleation score was 0.374 ± 0.3.

Q: Which amyloid nucleation score does the source give for SMHSLGSHEGSRRIPGLSFD here?
A: Its amyloid nucleation score is -0.007 ± 1.2.

Q: For GSCDMKVVVKCHCEYGMKQD, which amyloid nucleation score is on record?
A: The amyloid nucleation score was 2.24 ± 0.13.

Q: Which amyloid nucleation score does the source give for IGLKKGHYNLILHYYFVWKV here?
A: The amyloid nucleation score was 0.505 ± 0.51.

Q: Which amyloid nucleation score does the source give for PIKVMIFVCNGFRKWHLMQH here?
A: The amyloid nucleation score was 0.268 ± 1.1.

Q: With VNTMPILFFMPCVMKLSV as the substance, how does the amyloid nucleation score read?
A: Its amyloid nucleation score is 1.53 ± 0.57.

Q: For LADDHE, which amyloid nucleation score is on record?
A: The amyloid nucleation score was 0.229 ± 0.93.

Q: Which amyloid nucleation score does the source give for SLPFVTLLNAMCVCSGANCL here?
A: The amyloid nucleation score was 8.449 ± 0.045.

Q: Which amyloid nucleation score does the source give for WRLTSS here?
A: The amyloid nucleation score was -0.809 ± 0.45.

Q: For RFDVSMRYLSRSDVYDICAR, which amyloid nucleation score is on record?
A: The amyloid nucleation score was 0.177 ± 0.59.

Q: For GLTWKTFPSCPMSENNCIRH, which amyloid nucleation score is on record?
A: The amyloid nucleation score was 0.133 ± 0.79.

Q: For HDTDAKVQILNA, which amyloid nucleation score is on record?
A: Its amyloid nucleation score is 0.626 ± 0.69.

Q: Which amyloid nucleation score does the source give for RADPYVYLMEGVCGPRWEPN here?
A: The amyloid nucleation score was 0.014 ± 0.77.

Q: For QWNEDLSLWPDLKYGHMLLS, which amyloid nucleation score is on record?
A: The amyloid nucleation score was 0.052 ± 0.52.
